Measurements as given in PMC9482650, “Quantitative fragmentomics allow affinity mapping of interactomes” (Nature Communications, 2022).

Assays:
Test in all cases: holdup assay
Design in all cases: key: below the threshold = too weak to quantify, mostly under pKd 3.1 to 4
LNX1_1, Q8TBB1 = biological target: LNX1_1, Q8TBB1
Inadl_10, Q8NI35 = conditions: plain residues with an end cap or a label only (N-terminal biotin on a linker: ahx)
IL16_1, Q14005 = conditions: plain residues with an end cap or a label only (N-terminal biotin on a linker: ahx)
Chain of IL16_1, Q14005 (Q14005 210-306): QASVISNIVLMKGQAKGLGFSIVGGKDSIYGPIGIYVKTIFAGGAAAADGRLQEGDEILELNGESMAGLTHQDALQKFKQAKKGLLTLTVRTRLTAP

NOS1, P29475 = conditions: plain residues with an end cap or a label only (N-terminal biotin on a linker: ahx)
Chain of NOS1, P29475 (P29475 9-101): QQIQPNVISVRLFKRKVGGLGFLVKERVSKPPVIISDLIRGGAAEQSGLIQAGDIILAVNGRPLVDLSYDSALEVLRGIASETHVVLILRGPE

HTRA1, Q92743 = biological target: HTRA1, Q92743
Chain of HTRA1, Q92743 (Q92743 360-477): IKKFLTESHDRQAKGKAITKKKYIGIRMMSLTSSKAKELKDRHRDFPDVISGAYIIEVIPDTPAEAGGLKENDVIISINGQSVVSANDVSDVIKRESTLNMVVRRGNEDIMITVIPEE

SYNJ2BP, P57105 = biological target: T1, SYNJ2BP, P57105
T1 sequence (P57105 8-110, limits assumed, looked up): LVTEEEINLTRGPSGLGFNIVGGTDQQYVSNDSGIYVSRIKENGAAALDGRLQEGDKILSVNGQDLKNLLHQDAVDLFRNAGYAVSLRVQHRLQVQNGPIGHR

APBA1_2, Q02410 = biological target: T2, APBA1_2, Q02410; conditions: plain residues with an end cap or a label only (N-terminal biotin on a linker: ahx)
T2 sequence (Q02410 742-832, limits assumed, looked up): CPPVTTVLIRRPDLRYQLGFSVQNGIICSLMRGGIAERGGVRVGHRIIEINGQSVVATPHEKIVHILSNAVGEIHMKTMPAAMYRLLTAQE

MAGI2_6, Q86UL8 = conditions: plain residues with an end cap or a label only (N-terminal biotin on a linker: ahx)
Chain of MAGI2_6, Q86UL8 (Q86UL8 1141-1229): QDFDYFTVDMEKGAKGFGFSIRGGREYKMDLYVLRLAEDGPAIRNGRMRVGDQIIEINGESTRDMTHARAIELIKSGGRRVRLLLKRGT

DLG1_2, Q12959 = conditions: plain residues with an end cap or a label only (N-terminal biotin on a linker: ahx)
Chain of DLG1_2, Q12959 (Q12959 314-412): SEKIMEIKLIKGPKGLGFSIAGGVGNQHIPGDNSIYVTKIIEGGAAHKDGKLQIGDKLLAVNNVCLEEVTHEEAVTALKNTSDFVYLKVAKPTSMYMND

GRASP, Q7Z6J2 = conditions: plain residues with an end cap or a label only (N-terminal biotin on a linker: ahx)
Chain of GRASP, Q7Z6J2 (Q7Z6J2 96-193): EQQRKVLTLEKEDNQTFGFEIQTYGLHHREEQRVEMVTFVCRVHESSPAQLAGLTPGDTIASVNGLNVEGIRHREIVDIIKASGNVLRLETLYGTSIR

MAGI2_5, Q86UL8 = conditions: plain residues with an end cap or a label only (N-terminal biotin on a linker: ahx)
Chain of MAGI2_5, Q86UL8 (Q86UL8 915-1017): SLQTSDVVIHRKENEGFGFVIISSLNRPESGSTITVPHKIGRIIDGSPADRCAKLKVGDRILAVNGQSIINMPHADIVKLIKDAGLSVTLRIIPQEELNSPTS

TIAM2, Q8IVF5 = biological target: T3, TIAM2, Q8IVF5
T3 sequence (Q8IVF5 885-986, limits assumed, looked up): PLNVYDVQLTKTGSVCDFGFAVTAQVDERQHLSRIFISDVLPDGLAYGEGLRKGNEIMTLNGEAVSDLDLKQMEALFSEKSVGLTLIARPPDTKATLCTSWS

ARHGEF12, Q9NZN5-2 = conditions: plain residues with an end cap or a label only (N-terminal biotin on a linker: ahx)
Chain of ARHGEF12, Q9NZN5-2 (Q9NZN5 other isoform, or with tags, fused parts or gaps): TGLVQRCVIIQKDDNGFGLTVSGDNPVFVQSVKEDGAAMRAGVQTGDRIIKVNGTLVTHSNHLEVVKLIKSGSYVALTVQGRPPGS

GIPC2, Q8TF65 = biological target: GIPC2, Q8TF65
Chain of GIPC2, Q8TF65 (Q8TF65 112-203): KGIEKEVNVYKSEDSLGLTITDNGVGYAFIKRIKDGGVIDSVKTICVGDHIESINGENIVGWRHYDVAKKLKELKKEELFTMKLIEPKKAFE

MAST1, Q9Y2H9 = biological target: MAST1, Q9Y2H9
Chain of MAST1, Q9Y2H9 (Q9Y2H9 962-1065): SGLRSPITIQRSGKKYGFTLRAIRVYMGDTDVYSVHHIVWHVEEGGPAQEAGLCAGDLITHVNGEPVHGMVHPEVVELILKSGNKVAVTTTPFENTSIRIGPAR

MAGI1_2, Q96QZ7 = biological target: MAGI1_2, Q96QZ7
Chain of MAGI1_2, Q96QZ7 (Q96QZ7 456-580): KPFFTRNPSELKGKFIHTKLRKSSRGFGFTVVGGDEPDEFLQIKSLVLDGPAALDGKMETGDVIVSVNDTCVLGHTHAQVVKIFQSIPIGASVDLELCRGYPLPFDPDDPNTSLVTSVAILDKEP

ARHGEF11, O15085 = biological target: T4, ARHGEF11, O15085; conditions: plain residues with an end cap or a label only (N-terminal biotin on a linker: ahx)
T4 sequence (O15085 42-136, limits assumed, looked up): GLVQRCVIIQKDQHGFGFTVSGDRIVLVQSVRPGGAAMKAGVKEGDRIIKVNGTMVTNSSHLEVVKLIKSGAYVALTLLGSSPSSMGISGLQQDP

DLG2_2, Q15700 = biological target: DLG2_2, Q15700
GRID2IP_2, A4D2P6 = biological target: GRID2IP_2, A4D2P6
Chain of GRID2IP_2, A4D2P6 (A4D2P6 272-370): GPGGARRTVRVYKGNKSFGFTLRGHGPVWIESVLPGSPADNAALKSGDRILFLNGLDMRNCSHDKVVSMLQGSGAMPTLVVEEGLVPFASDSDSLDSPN

LIN7B, Q9HAP6 = biological target: T5, LIN7B, Q9HAP6; conditions: plain residues with an end cap or a label only (N-terminal biotin on a linker: ado-ado)
T5 sequence (Q9HAP6 88-185, limits assumed, looked up): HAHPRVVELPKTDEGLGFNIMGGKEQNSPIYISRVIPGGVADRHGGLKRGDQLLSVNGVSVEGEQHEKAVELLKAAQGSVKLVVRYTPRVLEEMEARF

DLG4_2, P78352 = conditions: plain residues with an end cap or a label only (N-terminal biotin on a linker: ado-ado)
Chain of DLG4_2, P78352 (P78352 155-259): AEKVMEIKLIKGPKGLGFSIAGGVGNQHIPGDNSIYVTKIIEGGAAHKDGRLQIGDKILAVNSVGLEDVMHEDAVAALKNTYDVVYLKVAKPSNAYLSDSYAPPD

GRIP1_5, Q9Y3R0 = biological target: T6, GRIP1_5, Q9Y3R0; conditions: plain residues with an end cap or a label only (N-terminal biotin on a linker: ado-ado)
T6 sequence (Q9Y3R0 568-668, limits assumed, looked up): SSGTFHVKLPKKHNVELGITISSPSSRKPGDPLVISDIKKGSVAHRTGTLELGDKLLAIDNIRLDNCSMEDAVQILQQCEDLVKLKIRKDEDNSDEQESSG

TJP1_3, Q07157 = conditions: plain residues with an end cap or a label only (N-terminal biotin on a linker: ado-ado)
Chain of TJP1_3, Q07157 (Q07157 416-512): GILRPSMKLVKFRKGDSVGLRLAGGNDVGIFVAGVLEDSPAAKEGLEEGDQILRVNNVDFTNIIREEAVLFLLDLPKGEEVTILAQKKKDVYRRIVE

DLG1_3, Q12959 = conditions: plain residues with an end cap or a label only (N-terminal biotin on a linker: ado-ado)
Chain of DLG1_3, Q12959 (Q12959 457-571): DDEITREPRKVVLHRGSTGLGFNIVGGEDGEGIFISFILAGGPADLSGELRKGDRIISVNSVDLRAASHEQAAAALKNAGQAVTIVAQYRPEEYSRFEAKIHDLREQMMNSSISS

NHERF4_1, Q86UT5-2 = conditions: plain residues with an end cap or a label only (N-terminal biotin on a linker: ado-ado)
Chain of NHERF4_1, Q86UT5-2 (Q86UT5 other isoform, or with tags, fused parts or gaps): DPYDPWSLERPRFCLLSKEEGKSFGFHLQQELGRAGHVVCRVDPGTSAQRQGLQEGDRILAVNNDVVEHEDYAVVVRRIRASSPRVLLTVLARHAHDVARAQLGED

GORASP2, Q9H8Y8 = conditions: plain residues with an end cap or a label only (N-terminal biotin on a linker: ado-ado)
TJP2_1, Q9UDY2 = conditions: plain residues with an end cap or a label only (N-terminal biotin on a linker: ado-ado)
Chain of TJP2_1, Q9UDY2 (Q9UDY2 24-128): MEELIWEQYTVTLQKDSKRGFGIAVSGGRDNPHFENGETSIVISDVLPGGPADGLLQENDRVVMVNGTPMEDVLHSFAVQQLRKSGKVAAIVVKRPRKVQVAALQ

IL16_3, Q14005 = conditions: plain residues with an end cap or a label only (N-terminal biotin on a linker: ado-ado)
Chain of IL16_3, Q14005 (Q14005 1107-1207): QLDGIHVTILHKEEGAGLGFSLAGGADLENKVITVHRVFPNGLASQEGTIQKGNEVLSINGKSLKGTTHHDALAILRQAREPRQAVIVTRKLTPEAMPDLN

MPDZ_10, O75970 = biological target: T7, MPDZ_10, O75970; conditions: plain residues with an end cap or a label only (N-terminal biotin on a linker: ado-ado)
T7 sequence (O75970 1624-1722, limits assumed, looked up): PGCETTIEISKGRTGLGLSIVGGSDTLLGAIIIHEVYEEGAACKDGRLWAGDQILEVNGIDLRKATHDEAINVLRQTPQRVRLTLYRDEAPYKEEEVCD

DLG2_3, Q15700 = conditions: plain residues with an end cap or a label only (N-terminal biotin on a linker: ado-ado)
DLG3_1, Q92796 = biological target: T8, DLG3_1, Q92796; conditions: plain residues with an end cap or a label only (N-terminal biotin on a linker: ado-ado)
T8 sequence (Q92796 125-227, limits assumed, looked up): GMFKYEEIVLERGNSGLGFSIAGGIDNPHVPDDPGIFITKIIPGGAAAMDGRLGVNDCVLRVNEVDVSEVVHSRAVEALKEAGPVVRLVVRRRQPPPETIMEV

ARHGAP21, Q5T5U3 = biological target: T9, ARHGAP21, Q5T5U3; conditions: plain residues with an end cap or a label only (N-terminal biotin on a linker: ado-ado)
T9 sequence (Q5T5U3 45-169, limits assumed, looked up): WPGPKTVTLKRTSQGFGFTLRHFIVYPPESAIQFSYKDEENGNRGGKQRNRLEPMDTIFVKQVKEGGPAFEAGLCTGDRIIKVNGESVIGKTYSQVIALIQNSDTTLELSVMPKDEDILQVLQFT

FRMPD2_1, Q68DX3 = conditions: plain residues with an end cap or a label only (N-terminal biotin on a linker: ado-ado)
Chain of FRMPD2_1, Q68DX3 (Q68DX3 770-861): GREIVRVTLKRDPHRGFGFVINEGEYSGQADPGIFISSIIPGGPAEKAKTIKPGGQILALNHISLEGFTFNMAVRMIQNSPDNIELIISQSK

SHANK1, Q9Y566 = biological target: T10, SHANK1, Q9Y566; conditions: plain residues with an end cap or a label only (N-terminal biotin on a linker: ado-ado)
T10 sequence (Q9Y566 658-767, limits assumed, looked up): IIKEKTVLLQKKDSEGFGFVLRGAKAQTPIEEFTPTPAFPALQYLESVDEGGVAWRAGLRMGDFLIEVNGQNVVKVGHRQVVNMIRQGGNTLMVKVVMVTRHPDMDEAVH

MPDZ_12, O75970 = biological target: T11, MPDZ_12, O75970; conditions: plain residues with an end cap or a label only (N-terminal biotin on a linker: ado-ado)
T11 sequence (O75970 1857-1958, limits assumed, looked up): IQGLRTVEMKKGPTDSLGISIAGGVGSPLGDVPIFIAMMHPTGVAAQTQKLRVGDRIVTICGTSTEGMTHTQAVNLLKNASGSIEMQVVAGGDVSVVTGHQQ

PDZD7_3, Q9H5P4 = biological target: T12, PDZD7_3, Q9H5P4; conditions: plain residues with an end cap or a label only (N-terminal biotin on a linker: ado-ado)
T12 sequence (Q9H5P4 857-944, limits assumed, looked up): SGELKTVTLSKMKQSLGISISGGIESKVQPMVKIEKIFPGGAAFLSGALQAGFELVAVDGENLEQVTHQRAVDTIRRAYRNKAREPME

DFNB31_3, Q9P202 = biological target: T13, DFNB31_3, Q9P202; conditions: plain residues with an end cap or a label only (N-terminal biotin on a linker: ado-ado)
T13 sequence (Q9P202 811-907, limits assumed, looked up): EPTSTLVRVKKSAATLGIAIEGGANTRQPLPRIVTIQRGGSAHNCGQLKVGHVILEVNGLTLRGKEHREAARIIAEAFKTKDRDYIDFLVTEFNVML

HTRA3, P83110 = biological target: T14, HTRA3, P83110; conditions: plain residues with an end cap or a label only (N-terminal biotin on a linker: ado-ado)
T14 sequence (P83110 354-453, limits assumed, looked up): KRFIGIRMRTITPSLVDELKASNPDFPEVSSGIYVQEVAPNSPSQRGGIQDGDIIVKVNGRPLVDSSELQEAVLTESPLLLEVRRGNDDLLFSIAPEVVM

PTPN3, P26045 = conditions: plain residues with an end cap or a label only (N-terminal biotin on a linker: ado-ado)
Chain of PTPN3, P26045 (P26045 505-587): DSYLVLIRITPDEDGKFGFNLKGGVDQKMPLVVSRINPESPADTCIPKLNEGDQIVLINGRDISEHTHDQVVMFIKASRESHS

LIN7C, Q9NUP9 = biological target: T15, LIN7C, Q9NUP9; conditions: plain residues with an end cap or a label only (N-terminal biotin on a linker: ado-ado)
T15 sequence (Q9NUP9 88-185, limits assumed, looked up): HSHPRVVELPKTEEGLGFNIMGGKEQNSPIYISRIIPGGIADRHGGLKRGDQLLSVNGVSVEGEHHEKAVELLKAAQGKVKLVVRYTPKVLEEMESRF

MPP6, Q9NZW5 = biological target: T16, MPP6, Q9NZW5; conditions: plain residues with an end cap or a label only (N-terminal biotin on a linker: ado-ado)
T16 sequence (Q9NZW5 125-219, limits assumed, looked up): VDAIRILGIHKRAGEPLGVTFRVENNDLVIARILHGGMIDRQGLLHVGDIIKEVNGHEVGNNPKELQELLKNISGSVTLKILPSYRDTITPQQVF

APBA3_1, O96018 = conditions: plain residues with an end cap or a label only
Chain of APBA3_1, O96018 (O96018 other isoform, or with tags, fused parts or gaps): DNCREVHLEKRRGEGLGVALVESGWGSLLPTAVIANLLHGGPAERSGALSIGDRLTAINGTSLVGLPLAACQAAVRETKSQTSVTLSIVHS

[1] = plain residues with an end cap or a label only (N-terminal biotin on a linker: ahx)
[2] = plain residues with an end cap or a label only (N-terminal biotin on a linker: ado-ado)

Chain of LNX1_1, Q8TBB1 (Q8TBB1 261-371): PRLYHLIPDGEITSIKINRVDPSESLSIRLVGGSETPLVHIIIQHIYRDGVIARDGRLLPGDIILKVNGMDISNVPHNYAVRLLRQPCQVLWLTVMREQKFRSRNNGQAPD
Chain of Inadl_10, Q8NI35 (Q8NI35 1673-1763): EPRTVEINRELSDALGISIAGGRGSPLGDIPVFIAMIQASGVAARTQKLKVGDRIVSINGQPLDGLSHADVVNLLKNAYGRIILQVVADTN

B1: PDLIM7, Q9NR12 (peptide)
chain: LCKSHAFSHV
With B1 the pKd (LNX1_1, Q8TBB1; [1]) was 3.51, the pKd (Inadl_10, Q8NI35) was 3.52 and the pKd (IL16_1, Q14005) was 3.51. It also gave a pKd (NOS1, P29475) of 3.48, a pKd (HTRA1, Q92743; [1]) of 3.68 and a pKd (SYNJ2BP, P57105; [1]) of 3.7. The pKd (APBA1_2, Q02410) was 3.83, the pKd (MAGI2_6, Q86UL8) was 3.61 and the pKd (DLG1_2, Q12959) was 3.48. The pKd (GRASP, Q7Z6J2) was 3.65, the pKd (MAGI2_5, Q86UL8) was 3.86 and the pKd (TIAM2, Q8IVF5; [1]) was 3.48. It also gave a pKd (ARHGEF12, Q9NZN5-2) of 3.55, a pKd (GIPC2, Q8TF65; [1]) of 3.67 and a pKd (MAST1, Q9Y2H9; [1]) of 3.75. For the same binder, the pKd (MAGI1_2, Q96QZ7; [1]) was 3.9, the pKd (ARHGEF11, O15085) was 3.48 and the pKd (DLG2_2, Q15700; [1]) was 3.56. The pKd (GRID2IP_2, A4D2P6; [1]) was 3.62.

B2: LSM14A, Q8ND56 (peptide)
chain: EYRKDNKVAA
Work on B2 yielded a pKd (LNX1_1, Q8TBB1; [2]) of 3.82, a pKd (LIN7B, Q9HAP6) of 3.83 and a pKd (DLG4_2, P78352) of 3.71. For the same binder, the pKd (GRIP1_5, Q9Y3R0) was 3.6, the pKd (TJP1_3, Q07157) was 3.53 and the pKd (HTRA1, Q92743; [2]) was 3.67. The pKd (DLG1_3, Q12959) was 3.64, the pKd (NHERF4_1, Q86UT5-2) was 3.61 and the pKd (GORASP2, Q9H8Y8) was 3.52. It also gave a pKd (TJP2_1, Q9UDY2) of 3.57, a pKd (IL16_3, Q14005) of 3.51 and a pKd (MPDZ_10, O75970) of 3.68. The pKd (DLG2_3, Q15700) was 3.88, the pKd (DLG3_1, Q92796) was 3.55 and the pKd (ARHGAP21, Q5T5U3) was 3.67. The pKd (FRMPD2_1, Q68DX3) was 3.68, the pKd (DLG2_2, Q15700; [2]) was 3.54 and the pKd (SHANK1, Q9Y566) was 3.51. It also gave a pKd (MPDZ_12, O75970) of 3.68.

B3: NDE1, Q9NXR1 (peptide)
chain: KSTTRSSSSC
For B3, the pKd (LIN7B, Q9HAP6) was 3.64, the pKd (PDZD7_3, Q9H5P4) was 3.73 and the pKd (DFNB31_3, Q9P202) was 3.75. It also gave a pKd (HTRA3, P83110) of 3.74, a pKd (SYNJ2BP, P57105; [2]) of 3.76 and a pKd (NHERF4_1, Q86UT5-2) of 3.85. It also gave a pKd (TIAM2, Q8IVF5; [2]) of 3.85, a pKd (GIPC2, Q8TF65; [2]) of 3.64 and a pKd (MAST1, Q9Y2H9; [2]) of 3.61. The pKd (PTPN3, P26045) was 3.52, the pKd (DLG2_3, Q15700) was 3.58 and the pKd (MAGI1_2, Q96QZ7; [2]) was 3.71. It also gave a pKd (LIN7C, Q9NUP9) of 3.88, a pKd (MPP6, Q9NZW5) of 3.6 and a pKd (GRID2IP_2, A4D2P6; [2]) of 3.59.

B4: a stretch of P69709, P69709 (peptide)
chain: RRSQSPSANC
In the case of B4, the pKd (APBA3_1, O96018) is reported as “below the threshold”.
